Measured values from patent publication US20220204611A1 (Amgen, published 2022).

T1: human TREM2 (human, UniProt Q9NZC2 19-174, limits assumed)
T1 sequence: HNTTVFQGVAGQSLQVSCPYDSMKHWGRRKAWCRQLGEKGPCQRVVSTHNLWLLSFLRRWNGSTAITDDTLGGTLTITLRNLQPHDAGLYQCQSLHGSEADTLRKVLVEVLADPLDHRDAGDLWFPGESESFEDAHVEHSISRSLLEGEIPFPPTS


Key:
human TREM2 [1] = biological target: T1, human TREM2; experiment: yeast-displayed Fab FACS, 2nd screen 10 nM
human TREM2 [2] = biological target: T1, human TREM2; experiment: yeast-displayed Fab FACS, 1st screen 10 nM
human TREM2 [3] = biological target: T1, human TREM2; experiment: yeast-displayed Fab FACS, 2nd screen 2 nM

binding signal fold over 6E7 parental (human TREM2 [1]) | binding signal fold over 6E7 parental (human TREM2 [2]) | binding signal fold over 6E7 parental (human TREM2 [3]) | Binder
2.54 fold | 2.42 fold | 2.3 fold | V48 (Fab, V domains shown) VH: EVQLVQSGAEVKKPGESLKISCKGSGYSFGSYWIAWVRQMPGKGLEWMGIIYPGDSDVRYSPSFQGQVTISADKSISTAYLQWSSLKASDTAMYFCARMRTFYYDSSDYFDYWGQGTLVTVSS VL: DIQMTQSPSSVSASVGDRVTITCRASQGISSWLAWYQQKPGKAPKLLIYAASSLQTGVPSRFSGSGSGTDFTLTISSLQPEDFATYFCQQADSLPRTFGQGTKLEIK
3.44 fold | 3.38 fold | 4 fold | V36 (Fab, V domains shown) VH: EVQLVQSGAEVKKPGESLKISCKGSGYSFTSYWLAWVRQMPGKGLEWMGIIYPGDSDTRYSPSFQGQVTISADKSISTAYLQWSSLKASDTAMYFCARSRTFYYDSSDYFDYWGQGTLVTVSS VL: DIQMTQSPSSVSASVGDRVTITCRASQGISSWLAWYQQKPGKAPKLLIYAASSRQNGVPSRFSGSGSGTDFTLTISSLQPEDFATYFCQQADSYPRTFGQGTKLEIK
5.69 fold | 5.5 fold | 5.67 fold | V27 (Fab, V domains shown) VH: EVQLVQSGAEVKKPGESLKISCKGSGYSFTSYWIAWVRQMPGKGLEWMGIIYPGDSDTRYAPSFQGQVTISADKSISTAYLQWSSLKASDTAMYFCVRSRTFYYDSSDYFDYWGQGTLVTVSS VL: DIQMTQSPSSVSASVGDRVTITCRASQGISSWLAWYQQKPGKAPKLLIYAASSLQRGVPSRFSGSGSGTDFTLTISSLQPEDFATYFCQQADSFPRTFGQGTKLEIK
1.72 fold | 1.74 fold | 0.58 fold | V41 (Fab, V domains shown) VH: EVQLVQSGAEVKKPGESLKISCKGSGYSFTSYWIAWVRQMPGKGLEWMGTIYPGDSDTRYSPSFQGQVTISADKSISTAYLQWSSLKASDTAMYFCARQRTFYYDSSDYFDYWGQGTLVTVSS VL: DIQMTQSPSSVSASVGDRVTITCRASQGISSWLAWYQQKPGKAPKLLIYAASSLQNGVPSRFSGSGSGTDFTLTISSLQPEDFATYFCQQADSFPRTFGQGTKLEIK
3.49 fold | 3.46 fold | 3.69 fold | V37 (Fab, V domains shown) VH: EVQLVQSGAEVKKPGESLKISCKGSGYSHTSYWIAWVRQMPGKGLEWMGIIYPGDSDTRYSPSFAGQVTISADKSISTAYLQWSSLKASDTAMYFCARSRTFYYDSSDYFDYWGQGTLVTVSS VL: DIQMTQSPSSVSASVGDRVTITCRASQGISSWLAWYQQKPGKAPKLLIYAASSLQWGVPSRFSGSGSGTDFTLTISSLQPEDFATYFCQQADSYPRTFGQGTKLEIK
4.16 fold | 4.48 fold | 3.41 fold | V40 (Fab, V domains shown) VH: EVQLVQSGAEVKKPGESLKISCKGSGYSFGSYWIAWVRQMPGKGLEWMGIIYPGDSDVRYSPSFQGQVTISADKSISTAYLQWSSLKASDTAMYFCARQRTFYYDSSDYSDYWGQGTLVTVSS VL: DIQMTQSPSSVSASVGDRVTITCRASQGISSWLAWYQQKPGKAPKLLIYAASSLQLGVPSRFSGSGSGTDFTLTISSLQPEDFATYFCQQADRFPRTFGQGTKLEIK
3.47 fold | 3.57 fold | 2.83 fold | V26 (Fab, V domains shown) VH: EVQLVQSGAEVKKPGESLKISCKGSGYSFTSYWIGWVRQMPGKGLEWMGTIYPGDSDTRYSPSFQGQVTISADKSISTAYLQWSSLKASDTAMYFCARQRTMYYDSSDYFDAWGQGTLVTVSS VL: DIQMTQSPSSVSASVGDRVTITCRASQGISSWLAWYQQKPGKAPKLLIYAASSLQRGVPSRFSGSGSGTDFTLTISSLQPEDFATYFCQQADSYPRTFGQGTKLEIK
1.67 fold | 1.53 fold | 0.84 fold | V29 (Fab, V domains shown) VH: EVQLVQSGAEVKKPGESLKISCKGSGYSFKSYWIAWVRQMPGKGLEWMGIIYPGDSDTRYSPSFQGQVTISADKSISTAYLQWSSLKASDTAMYFCARQRTFYYDSSDYFDYWGQGTLVTVSS VL: DIQMTQSPSSVSASVGDRVTITCRASQGISSWLAWYQQKPGKAPKLLIYAASSLQNGVPSRFSGSGSGTDFTLTISSLQPEDFATYFCQQADSFPRTFGQGTKLEIK

The remaining lines, values behind:

Binder | binding signal fold over 6E7 parental (human TREM2 [1]) | binding signal fold over 6E7 parental (human TREM2 [2]) | binding signal fold over 6E7 parental (human TREM2 [3])
V4 (Fab, V domains shown) VH: EVQLVQSGAEVKKPGESLKISCKGSGYSFGSYWIAWVRQMPGKGLEWMGIIYPGDSDTRVSPSFQGQVTISADKSISTAYLQWSSLKASDTAMYFCARSRTFYYDSSDYFDYWGQGTLVTVSS VL: DIQMTQSPSSVSASVGDRVTITCRASQGISSWLAWYQQKPGKAPKLLIYAASRLQNGVPSRFSGSGSGTDFTLTISSLQPEDFATYFCQQADSYPRTFGQGTKLEIK | 5.51 fold | 6 fold | 5.88 fold
V24 (Fab, V domains shown) VH: EVQLVQSGAEVKKPGESLKISCKGSGYSFTSYWIAWVRQMPGKGLEWMGIIYPGDSDVRYSPSFQGQVTISADKSISTAYLQWSSLKASDTAMYFCARSRTFYYDSSDYFDYWGQGTLVTVSS VL: DIQMTQSPSSVSASVGDRVTITCRASQGISSWLAWYQQKPGKAPKLLIYAASSLQKGVPSRFSGSGSGTDFTLTISSLQPEDFATYFCQQADSFPHTFGQGTKLEIK | 2.9 fold | 2.64 fold | 1.42 fold
V15 (Fab, V domains shown) VH: EVQLVQSGAEVKKPGESLKISCKGSGYSFASYWIAWVRQMPGKGLEWMGTIYPGDSDTRYSPSFQGQVTISADKSISTAYLQWSSLKASDTAMYFCARSRTFYYDSSDYFDYWGQGTLVTVSS VL: DIQMTQSPSSVSASVGDRVTITCRASQGISSWLAWYQQKPGKAPKLLIYAASWLQNGVPSRFSGSGSGTDFTLTISSLQPEDFATYFCQQADSYPRTFGQGTKLEIK | 4.78 fold | 5.23 fold | 4.72 fold
V25 (Fab, V domains shown) VH: EVQLVQSGAEVKKPGESLKISCKGSGYSFGSYWIAWVRQMPGKGLEWMGLIYPGDSDTRYSPSFQGQVTISADKSISTAYLQWSSLKASDTAMYFCARSRTFYYDSSDYFDYWGQGTLVTVSS VL: DIQMTQSPSSVSASVGDRVTITCRASQGISSWLAWYQQKPGKAPKLLIYAASSLANGVPSRFSGSGSGTDFTLTISSLQPEDFATYFCQQADSMPRTFGQGTKLEIK | 4.7 fold | 4.23 fold | 3.15 fold
V13 (Fab, V domains shown) VH: EVQLVQSGAEVKKPGESLKISCKGSGYSFGSYWIAWVRQMPGKGLEWMGIIYPGDSDTRYSASFQGQVTISADKSISTAYLQWSSLKASDTAMYFCARGRTFYYDSSDYFDYWGQGTLVTVSS VL: DIQMTQSPSSVSASVGDRVTITCRASQGISSWLAWYQQKPGKAPKLLIYAASSLQGGVPSRFSGSGSGTDFTLTISSLQPEDFATYFCQQADSMPRTFGQGTKLEIK | 1.35 fold | 1.31 fold | 1.15 fold
V14 (Fab, V domains shown) VH: EVQLVQSGAEVKKPGESLKISCKGSGYSFGSYWIAWVRQMPGKGLEWMGIIYPGDQDTRYSPSFQGQVTISADKSISTAYLQWSSLKASDTAMYFCARGRTFYYDSSDYFDYWGQGTLVTVSS VL: DIQMTQSPSSVSASVGDRVTITCRASQGISSWLAWYQQKPGKAPKLLIYAASRLQNGVPSRFSGSGSGTDFTLTISSLQPEDFATYFCQQADSFPRTFGQGTKLEIK | 4.64 fold | 4.71 fold | 2.57 fold
V17 (Fab, V domains shown) VH: EVQLVQSGAEVKKPGESLKISCKGSGYSFGSYWIAWVRQMPGKGLEWMGIIYPGDSDTRYSPSFQGQVTISADKSISTAYLQWSSLKASDTAMYFCARSRTFYYDSSDYFDYWGQGTLVTVSS VL: DIQMTQSPSSVSASVGDRVTITCRASQGISSWLAWYQQKPGKAPKLLIYAASSRQNGVPSRFSGSGSGTDFTLTISSLQPEDFATYFCQQADSSPRTFGQGTKLEIK | 5.51 fold | 5.37 fold | 4.22 fold
V5 (Fab, V domains shown) VH: EVQLVQSGAEVKKPGESLKISCKGSGYSFTSYWIAWVRQMPGKGLEWMGTIYPGDSDTRYSPSFQGQVTISADKSISTAYLQWSSLKASDTAMYFCARQRTFYYDSSDYFDYWGQGTLVTVSS VL: DIQMTQSPSSVSASVGDRVTITCRASQGISSWLAWYQQKPGKAPKLLIYAASSLQNGVPSRFSGSGSGTDFTLTISSLQPEDFATYFCQQADSHPRTFGQGTKLEIK | 2.84 fold | 2.73 fold | 1.25 fold
V16 (Fab, V domains shown) VH: EVQLVQSGAEVKKPGESLKISCKGSGYSMTSYWIAWVRQMPGKGLEWMGIIYPGDGDTRYSPSFQGQVTISADKSISTAYLQWSSLKASDTAMYFCARSRTFYYDSSDYFDYWGQGTLVTVSS VL: DIQMTQSPSSVSASVGDRVTITCRASQGISSWLAWYQQKPGKAPKLLIYAASNLQNGVPSRFSGSGSGTDFTLTISSLQPEDFATYFCQQADSFPRTFGQGTKLEIK | 4.04 fold | 4.01 fold | 3.57 fold
